Test results reported in patent US20240148894A1, “USE OF ANTIBODY-DRUG CONJUGATE TARGETING HER2 IN TREATMENT OF SPECIFIC BREAST CANCER” (priority 2021, published 2024).
“And” between values parts separate entries of the source, which are not always exact repeats. Identical values can stand only once. “Also recorded” adds a separate entry of the source.

Tested on: HER2-positive (IHC 3+ or FISH +) locally advanced or metastatic breast cancer
Assay: Parallel-group, randomized, open-label clinical trial; progression-free survival (PFS), ITT and metastatic-site subgroup analyses
Type: in vivo, human
Protocol: This study was a parallel-group, randomized, open-label clinical trial to evaluate the efficacy and safety of Disitamab vedotin as compared to treatment with lapatinib and capecitabine in patients with HER2-positive (positive being defined as IHC 3+ or FISH +) locally advanced or metastatic breast cancer. Subjects were randomized 1:1.
The primary endpoint indicator of the study was PFS (progression-free survival), which was evaluated for 6 weeks (±7 days).
Disitamab vedotin, namely RC48-ADC (average DAR value: 4±0.5), was administered at a dose of 2.0 mg/kg via intravenous drip, once every 2 weeks, 42 days as one treatment cycle.

[1] = overall ITT, RC48-ADC relative to capecitabine+lapatinib

B1: Disitamab vedotin (conjugate, chains of the INN, looked up)
VH: EVQLVQSGAEVKKPGATVKISCKVSGYTFTDYYIHWVQQAPGKGLEWMGRVNPDHGDSYYNQKFKDKATITADKSTDTAYMELSSLRSEDTAVYFCARNYLFDHWGQGTLVTVSS
VL: DIQMTQSPSSVSASVGDRVTITCKASQDVGTAVAWYQQKPGKAPKLLIYWASIRHTGVPSRFSGSGSGTDFTLTISSLQPEDFATYYCHQFATYTFGGGTKVEIK
modifications: vedotin (MMAE) payload
Disease progression or death, % (Bone metastasis: No (N=63 vs 68), ITT): 63.5%
Censoring, % (Bone metastasis: No, ITT): 36.5%
Progression-free survival time, Median (95% CI) (Bone metastasis: No, ITT, Kaplan-Meier): 9.6 months and 9.6 (6.9, 13.1) months
COX proportional hazards model (without considering stratification factors) Hazard ratio (95% CI) (Bone metastasis: No, RC48-ADC relative to capecitabine+lapatinib): 0.76 (0.50, 1.15)
Disease progression or death, % (Bone metastasis: Yes (N=36 vs 33), ITT): 77.8%
Censoring, % (Bone metastasis: Yes, ITT): 22.2%
Progression-free survival time, Median (95% CI) (Bone metastasis: Yes, ITT, Kaplan-Meier): 7.8 months and 7.8 (2.8, 12.4) months
COX proportional hazards model (without considering stratification factors) Hazard ratio (95% CI) (Bone metastasis: Yes, RC48-ADC relative to capecitabine+lapatinib): 0.95 (0.56, 1.61)
Disease progression or death, % (Liver metastasis: No (N=61 vs 58), ITT): 75.4%
Censoring, % (Liver metastasis: No, ITT): 24.6%
Progression-free survival time, Median (95% CI) (Liver metastasis: No, ITT, Kaplan-Meier): 7.0 months and 7.0 (5.5, 9.9) months
COX proportional hazards model (without considering stratification factors) Hazard ratio (95% CI) (Liver metastasis: No, RC48-ADC relative to capecitabine+lapatinib): 1.26 (0.83, 1.91)
Disease progression or death, % (Liver metastasis: Yes (N=38 vs 43), ITT): 57.9%
Censoring, % (Liver metastasis: Yes, ITT): 42.1%
Progression-free survival time, Median (95% CI) (Liver metastasis: Yes, ITT, Kaplan-Meier): 12.5 months and 12.5 (7.1, 14.1) months
COX proportional hazards model (without considering stratification factors) Hazard ratio (95% CI) (Liver metastasis: Yes, RC48-ADC relative to capecitabine+lapatinib): 0.41 (0.24, 0.71)
Disease progression or death, % (Lung metastasis: No (N=55 vs 49), ITT): 61.8%
Censoring, % (Lung metastasis: No, ITT): 38.2%
Progression-free survival time, Median (95% CI) (Lung metastasis: No, ITT, Kaplan-Meier): 10.9 months and 10.9 (5.7, 13.7) months
COX proportional hazards model (without considering stratification factors) Hazard ratio (95% CI) (Lung metastasis: No, RC48-ADC relative to capecitabine+lapatinib): 0.68 (0.42, 1.07)
Disease progression or death, % (Lung metastasis: Yes (N=44 vs 52), ITT): 77.3%
Censoring, % (Lung metastasis: Yes, ITT): 22.7%
Progression-free survival time, Median (95% CI) (Lung metastasis: Yes, ITT, Kaplan-Meier): 8.2 months and 8.2 (5.6, 12.2) months
COX proportional hazards model (without considering stratification factors) Hazard ratio (95% CI) (Lung metastasis: Yes, RC48-ADC relative to capecitabine+lapatinib): 1.05 (0.67, 1.65)
Disease progression or death, % (Viscera metastasis (CRF): No (N=22 vs 23), ITT): 68.2%
Censoring, % (Viscera metastasis (CRF): No, ITT): 31.8%
Progression-free survival time, Median (95% CI) (Viscera metastasis (CRF): No, ITT, Kaplan-Meier): 9.6 months and 9.6 (4.3, 14.2) months
Disease progression or death, % (Viscera metastasis (CRF): Yes (N=77 vs 78), ITT): 68.8%
Censoring, % (Viscera metastasis (CRF): Yes, ITT): 31.2%
Progression-free survival time, Median (95% CI) (Viscera metastasis (CRF): Yes, ITT, Kaplan-Meier): 9.3 months and 9.3 (6.9, 12.2) months
relative risk reduction of disease progression or death (Viscera metastasis: No (as printed in Table 7), vs capecitabine+lapatinib): 24% chance of
COX proportional hazards model (without considering stratification factors) Hazard ratio (95% CI) (Viscera metastasis: No, RC48-ADC relative to capecitabine+lapatinib): 1.02 (0.51, 2.05)
COX proportional hazards model (without considering stratification factors) Hazard ratio (95% CI) (Viscera metastasis: Yes, RC48-ADC relative to capecitabine+lapatinib): 0.76 (0.53, 1.10)
COX proportional hazards model (considering stratification factors) Hazard ratio (95% CI) [1]: 0.82 (0.59, 1.13)
COX proportional hazards model (without considering stratification factors) Hazard ratio (95% CI) [1]: 0.82 (0.60, 1.14)
PFS comparison with control group, in words (overall sample of breast cancer patients): did not show a statistically significant advantage
Censoring, % (overall, ITT analysis set): 31.3%
Disease progression or death, % (overall, ITT analysis set (N=99 vs 101)): 68.7%
Progression-free survival, Median (95% CI) (overall, ITT analysis set, Kaplan-Meier): 9.3 months and 9.3 (6.9, 12.2) months
PFS comparison with control group, in words (patients with bone metastasis): no very significant difference; also recorded: no statistically significant difference
median progression-free survival time longer than control treatment group by (patients with liver metastasis, vs capecitabine+lapatinib): 6.9 months
PFS comparison with control group, in words (patients with lung metastasis): no significant difference
progression-free survival time shorter than capecitabine+lapatinib by (patients with lung metastasis): 0.1 months
PFS comparison with control group, in words (patients with viscera metastasis): did not show statistical differences; also recorded: no statistically significant difference
median progression-free survival time longer than control treatment group by (patients with viscera metastasis, vs lapatinib+capecitabine): 2.4 months
PFS comparison with control group, in words (patients without bone metastasis): did not show a statistically significant advantage; also recorded: no very significant difference; also recorded: no statistically significant difference
relative risk reduction of disease progression or death (patients without bone metastasis, vs capecitabine+lapatinib): 24% chance of
median progression-free survival time longer than control treatment group by (patients without bone metastasis, vs lapatinib+capecitabine): 1.6 months
median progression-free survival time shorter than control treatment group by (patients without liver metastasis, vs capecitabine+lapatinib): 2.0 months
median progression-free survival time longer than control treatment group by (patients without lung metastasis, vs capecitabine+lapatinib): 5.3 months
PFS comparison with control group, in words (patients without viscera metastasis): did not show a statistically significant advantage; also recorded: no statistical difference; also recorded: no statistically significant difference
median progression-free survival time longer than control treatment group by (patients without viscera metastasis, vs lapatinib+capecitabine): 1.5 months
